Experimental data reported in the supplement of paper PMC9170038.

System: MS2 coat protein
Assay: apparent KD of MS2 coat protein; designed switch direction (-1 OFF switch, 1 ON switch): 1; higher = weaker reporter binding
Method in brief: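 Three titration conditions were used: no input, 200 uM small-molecule ligand, and an oligonucleotide input. In each, SNAP-549-labelled MS2 coat protein was raised from 0.7 or 1.5 nM, doubling, to 3 µM over designed RNA switches transcribed on Illumina chips by stalled E. coli RNA polymerase. Curve fits of normalised cluster fluorescence gave values whose per-design median over clusters is the apparent KD.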

[1] = input ligand: microRNA oligo, concentration not stated
[2] = Eterna round: R95, input ligand: FMN 200 uM
[3] = Eterna round: R95, input ligand: microRNA oligo, concentration not stated
[4] = Eterna round: R95, input ligand: none

| Sequence | apparent KD of MS2 coat protein (input ligand: FMN 200 uM) [nM] | apparent KD of MS2 coat protein [1] [nM] | apparent KD of MS2 coat protein (input ligand: none) [nM] | apparent KD of MS2 coat protein [2] [nM] | apparent KD of MS2 coat protein [3] [nM] | apparent KD of MS2 coat protein [4] [nM] |
| --- | --- | --- | --- | --- | --- | --- |
| GCGAGCGUACUUGCUACAUGAGGAUCACCCAUGUUUAUUGGACAGGAUAUGGUACCGUUUCGGUACCAGAAGGGUCCACAUGUG [JL SSNG3 3.86] (Eterna round: R96, puzzle: Same State NG 3) | 106 | 182 | 289 | – | – | – |
| GAAGGAUGAGCGUAGGAUAUAGGAGGAGUGACAUGAGGAUCACCCAUGUAGUAGGAGGGAGGGUACUAGAAGGACGAGGAAGAAG [JR_SS2_Sub067] (puzzle: Same State 2) | – | – | – | 39.7 | 49.3 | 51.5 |
| GUUAUACAUGAGGAUCACCCAUGUCAAUGUAGUCGAGGAUAUGGGUAGCCAUGAGGCGUACUAGAAGGCGAGGAGU [JL-ss1-3.19 ViennaUCT mod] (puzzle: Same State 1) | – | – | – | 130 | 68.8 | 81.5 |
| CGACACACGGCAGGAUAUGCUUAGCAAAGCUAAGCAGAAGGGCCUCAUGUCGUGGAAACGUGACAUGAGGAUCACCCAUGUUGC [Omei SS(NG)1 Cv1] (Eterna round: R96, puzzle: Same State NG 1) | 21 | 5.59 | 36.3 | – | – | – |
| GGUCCAGCCUGAGCUGGACAAAAGCAUGUACAUGAGGAUCACCCAUGUCAUGUACAAGCUUUUUGCUCGUCUAAAGG [Mat - hsa-mir-208a - 92] (puzzle: Sensor for hsa-mir-208a) | – | – | – | 726 | 23.8 | 586 |
| GUUAGGAAUCUAGCAUACAUGAGGAUCACCCAUGUAAGUGGGAAGGAUAUGGUACAGAAACUGUACCAGAAGGUCUUAUUGAUU [Omei SS(NG) 3 AV6] (Eterna round: R96, puzzle: Same State NG 3) | 45.1 | 40.8 | 80.1 | – | – | – |
| UCGUUCAUCGUAGGAUAUCUAGGAUAUGAACGAGGAUCACCCGAGCAGCAUCAGCGCAUCAGAGGAGAGAAGGACGAUGAUGCG [pwkr ssNG2 2F5 2FMN.4] (Eterna round: R96, puzzle: Same State NG 2) | 1080 | 37.2 | 172 | – | – | – |
| CAUACGCGGAGAGGAUAUCGCAGGGUAACGGUAAGUGCCCGAUGACAUGAGGAUCACCCAUGUAUCGAGAAGGCUCCUCACCCU [Eternabot solution 22] (Eterna round: R96, puzzle: Same State NG 2) | 10.6 | 7.9 | 15.1 | – | – | – |
| ACAUGAGACUUAGGAUAUGUUGUACCUACAUGUGACAUGAGGAUCACCCAUGUGGUAAGUAUGAGGCAGAAGGGAGAGAUAUGU [Equivalence 47 - Jieux - Same State NG 2] (Eterna round: R96, puzzle: Same State NG 2) | 54.3 | 85.6 | 77.7 | – | – | – |
| UUUAGCGUUACAGGAUAUGGUGAGGAUCACCCACUAGAAGGGUAAACAUGUGCGUCGGACAUGAGGAUCACCCAUGUAGGGCGU (Eterna round: R96, puzzle: Same State NG 1) | 16.5 | 22.2 | 35.2 | – | – | – |
| UACUAUCUAUCUCAGGAUAUCAUGUCAAAGACAUGAGGAUCACCCAUGUACCAGGAAACUGGUUAUGAGAAGGGAGAUAGAUAGU [Mat - Same State 2 - Mod - D40] (puzzle: Same State 2) | – | – | – | 160 | 53.2 | 249 |
| GGAGCCGGCCUAGGAUAUUUCAUAAAUUAACAUGAGGAUCACCCAUGUAGGCCAGAAGGCCUUGGGAAGAAGGAGGUCGGCUCC [Loop Effect - U27,U28] (Eterna round: R96, puzzle: Same State NG 2) | 16.8 | 37.7 | 51.4 | – | – | – |
